Data: patent publication US8525237 (University of California, dated 2013)
Ends that are not written are not given here.

Molecular target: transferrin receptor (TfR) (UniProt P02786 89-760, limits assumed)
Assay: phage-based ELISA (assay not given)

Chain of transferrin receptor (TfR) (P02786 89-760 limits assumed): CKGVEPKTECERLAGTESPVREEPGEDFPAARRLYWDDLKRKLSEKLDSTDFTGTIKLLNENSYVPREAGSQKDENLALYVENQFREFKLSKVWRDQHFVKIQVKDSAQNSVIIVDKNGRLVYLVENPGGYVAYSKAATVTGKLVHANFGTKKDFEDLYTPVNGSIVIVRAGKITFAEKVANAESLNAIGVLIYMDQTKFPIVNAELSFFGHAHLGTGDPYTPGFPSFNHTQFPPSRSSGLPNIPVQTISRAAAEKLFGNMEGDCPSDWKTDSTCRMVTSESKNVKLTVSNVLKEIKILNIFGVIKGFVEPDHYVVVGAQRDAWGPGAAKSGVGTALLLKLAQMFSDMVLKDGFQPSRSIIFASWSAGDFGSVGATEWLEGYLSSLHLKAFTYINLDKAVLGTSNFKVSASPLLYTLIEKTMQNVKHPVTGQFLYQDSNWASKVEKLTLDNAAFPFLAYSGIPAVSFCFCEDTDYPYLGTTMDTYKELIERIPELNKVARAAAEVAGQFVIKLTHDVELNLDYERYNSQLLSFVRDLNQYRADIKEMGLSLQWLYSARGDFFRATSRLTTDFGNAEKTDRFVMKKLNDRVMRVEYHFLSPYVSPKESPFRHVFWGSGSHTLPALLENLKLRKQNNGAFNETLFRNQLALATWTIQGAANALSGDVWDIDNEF

B1: PSMA-3 peptide displayed on M13 phage (peptide, not shown: large carriers)
peptide: SECVEVFQNSCDW
modifications: not fully specified; cysteine pairing not given here
notes: Tested on phage in ELISA and as phage encapsulated in PEDOT nanowires; also called second generation peptide; PSMA-3 viruses
**Q.** Does B1 bind?
**A.** no binding
